Data from patent US20250129168A1.

What was measured:
[1] = target: recombinant human-Dectin-1 mouse Fc fusion (human) (UniProt Q9BXN2); experiment: Octet BLI, delta between the two X values
[2] = target: recombinant human-Dectin-1 mouse Fc fusion (human) (UniProt Q9BXN2); experiment: Octet BLI, response at X

Row | Binder | delta [1] | X = 340 [2] | X = 470 [2] | X = 290 [2] | X = 350 [2]
1 | 2M24A.1.1 hFab (Fab, V domains shown) VH: QVQLVQSGAEVKKPGASVKVSCKSSGYTFTAYYIHWVRQAPGQGLEWMGWINPNSGDTNYAQKFQGRITMTRDTSISTAYLELSRLRSDDTAVFYCARNSGSYSFGYWGQGTLVTVSS VL: DIQMTQSPSSVSASVGDRVTITCRASQGISSWLAWYQQKPGKAPKLLIFGASSLQSGVPSRFSGSGSGTDFTLTVSSLQPEDFATYYCQQAASFPFTFGPGTKVDIE | 98% | 0.305 | 0.006 | – | –
2 | 2M24A.1.2 hFab (Fab, V domains shown) VH: QVQLVQSGAEVKKPGASVKVSCKSSGYTFTDYYIHWVRQAPGQGLEWMGWINPNSGATNYAQKFQGRITMTRDTSISTAYLELSRLRSDDTAVFYCARNSGSYSFGYWGQGTLVTVSS VL: DIQMTQSPSSVSASVGDRVTITCRASQGISSWLAWYQQKPGKAPKLLIFGASSLQSGVPSRFSGSGSGTDFTLTVSSLQPEDFATYYCQQAASFPFTFGPGTKVDIE | 98% | 0.331 | 0.006 | – | –
3 | 2M24A.1.3 hFab (Fab, V domains shown) VH: QVQLVQSGAEVKKPGASVKVSCKSSGYTFTDYYIHWVRQAPGQGLEWMGWINPNSGDTNYAQKFQGRITMTRDTSISTAYLELSRLRSDDTAVFYCARASGSYSFGYWGQGTLVTVSS VL: DIQMTQSPSSVSASVGDRVTITCRASQGISSWLAWYQQKPGKAPKLLIFGASSLQSGVPSRFSGSGSGTDFTLTVSSLQPEDFATYYCQQAASFPFTFGPGTKVDIE | – | 0 | 0 | – | –
4 | 2M24A.1.4 hFab (Fab, V domains shown) VH: QVQLVQSGAEVKKPGASVKVSCKSSGYTFTDYYIHWVRQAPGQGLEWMGWINPNSGDTNYAQKFQGRITMTRDTSISTAYLELSRLRSDDTAVFYCARNSGSASFGYWGQGTLVTVSS VL: DIQMTQSPSSVSASVGDRVTITCRASQGISSWLAWYQQKPGKAPKLLIFGASSLQSGVPSRFSGSGSGTDFTLTVSSLQPEDFATYYCQQAASFPFTFGPGTKVDIE | – | 0 | 0 | – | –
5 | 2M24A.1.6 hFab (Fab, V domains shown) VH: QVQLVQSGAEVKKPGASVKVSCKSSGYTFTAYYIHWVRQAPGQGLEWMGWINPNSGDTNYAQKFQGRITMTRDTSISTAYLELSRLRSDDTAVFYCARNSGSYSFGYWGQGTLVTVSS VL: DIQMTQSPSSVSASVGDRVTITCRASQGISSWLAWYQQKPGKAPKLLIFGASSLQSGVPSRFSGSGSGTDFTLTVSSLQPEDFATYYCQQAFSFPFTFGPGTKVDIE | 21% | 0.493 | 0.39 | – | –
6 | 2M24A.1.7 hFab (Fab, V domains shown) VH: QVQLVQSGAEVKKPGASVKVSCKSSGYTFTDYYIHWVRQAPGQGLEWMGWINPNSGATNYAQKFQGRITMTRDTSISTAYLELSRLRSDDTAVFYCARNSGSYSFGYWGQGTLVTVSS VL: DIQMTQSPSSVSASVGDRVTITCRASQGISSWLAWYQQKPGKAPKLLIFGASSLQSGVPSRFSGSGSGTDFTLTVSSLQPEDFATYYCQQAFSFPFTFGPGTKVDIE | 22% | 0.51 | 0.398 | – | –
7 | 2M24A.1.8 hFab (Fab, V domains shown) VH: QVQLVQSGAEVKKPGASVKVSCKSSGYTFTDYYIHWVRQAPGQGLEWMGWINPNSGDTNYAQKFQGRITMTRDTSISTAYLELSRLRSDDTAVFYCARASGSYSFGYWGQGTLVTVSS VL: DIQMTQSPSSVSASVGDRVTITCRASQGISSWLAWYQQKPGKAPKLLIFGASSLQSGVPSRFSGSGSGTDFTLTVSSLQPEDFATYYCQQAFSFPFTFGPGTKVDIE | 100% | 0.042 | 0 | – | –
8 | 2M24A.1.9 hFab (Fab, V domains shown) VH: QVQLVQSGAEVKKPGASVKVSCKSSGYTFTDYYIHWVRQAPGQGLEWMGWINPNSGDTNYAQKFQGRITMTRDTSISTAYLELSRLRSDDTAVFYCARNSGSASFGYWGQGTLVTVSS VL: DIQMTQSPSSVSASVGDRVTITCRASQGISSWLAWYQQKPGKAPKLLIFGASSLQSGVPSRFSGSGSGTDFTLTVSSLQPEDFATYYCQQAFSFPFTFGPGTKVDIE | 100% | 0.018 | 0 | – | –
9 | 2M24A.1.11 hFab (Fab, V domains shown) VH: QVQLVQSGAEVKKPGASVKVSCKSSGYTFTAYYIHWVRQAPGQGLEWMGWINPNSGDTNYAQKFQGRITMTRDTSISTAYLELSRLRSDDTAVFYCARNSGSYSFGYWGQGTLVTVSS VL: DIQMTQSPSSVSASVGDRVTITCRASQGISSWLAWYQQKPGKAPKLLIFGASSLQSGVPSRFSGSGSGTDFTLTVSSLQPEDFATYYCQQAYSFPFTFGPGTKVDIE | 16% | 0.499 | 0.418 | – | –
10 | 2M24A.1.12 hFab (Fab, V domains shown) VH: QVQLVQSGAEVKKPGASVKVSCKSSGYTFTDYYIHWVRQAPGQGLEWMGWINPNSGATNYAQKFQGRITMTRDTSISTAYLELSRLRSDDTAVFYCARNSGSYSFGYWGQGTLVTVSS VL: DIQMTQSPSSVSASVGDRVTITCRASQGISSWLAWYQQKPGKAPKLLIFGASSLQSGVPSRFSGSGSGTDFTLTVSSLQPEDFATYYCQQAYSFPFTFGPGTKVDIE | 19% | 0.49 | 0.399 | – | –
11 | 2M24A.1.14 hFab (Fab, V domains shown) VH: QVQLVQSGAEVKKPGASVKVSCKSSGYTFTDYYIHWVRQAPGQGLEWMGWINPNSGDTNYAQKFQGRITMTRDTSISTAYLELSRLRSDDTAVFYCARNSGSASFGYWGQGTLVTVSS VL: DIQMTQSPSSVSASVGDRVTITCRASQGISSWLAWYQQKPGKAPKLLIFGASSLQSGVPSRFSGSGSGTDFTLTVSSLQPEDFATYYCQQAYSFPFTFGPGTKVDIE | 100% | 0.106 | 0 | – | –
12 | 2M24A.1.13 hFab (Fab, V domains shown) VH: QVQLVQSGAEVKKPGASVKVSCKSSGYTFTDYYIHWVRQAPGQGLEWMGWINPNSGDTNYAQKFQGRITMTRDTSISTAYLELSRLRSDDTAVFYCARASGSYSFGYWGQGTLVTVSS VL: DIQMTQSPSSVSASVGDRVTITCRASQGISSWLAWYQQKPGKAPKLLIFGASSLQSGVPSRFSGSGSGTDFTLTVSSLQPEDFATYYCQQAYSFPFTFGPGTKVDIE | 100% | 0.028 | 0 | – | –
13 | 2M24A.1.15 (Fab, V domains shown) VH: QVQLVQSGAEVKKPGASVKVSCKSSGYTFTDYYIHWVRQAPGQGLEWMGWINPNSGDTNYAQKFQGRITMTRDTSISTAYLELSRLRSDDTAVFYCAANSGSYSFGYWGQGTLVTVSS VL: DIQMTQSPSSVSASVGDRVTITCRASQGISSWLAWYQQKPGKAPKLLIFGASSLQSGVPSRFSGSGSGTDFTLTVSSLQPEDFATYYCQQAYSFPFTFGPGTKVDIE | 62% | – | – | 0.082 | 0.0314
14 | 2M24A.1.16 (Fab, V domains shown) VH: QVQLVQSGAEVKKPGASVKVSCKSSGYTFTDYYIHWVRQAPGQGLEWMGWINPNSGDTNYAQKFQGRITMTRDTSISTAYLELSRLRSDDTAVFYCARNAGSYSFGYWGQGTLVTVSS VL: DIQMTQSPSSVSASVGDRVTITCRASQGISSWLAWYQQKPGKAPKLLIFGASSLQSGVPSRFSGSGSGTDFTLTVSSLQPEDFATYYCQQAYSFPFTFGPGTKVDIE | 5% | – | – | 0.12 | 0.114
15 | 2M24A.1.17 (Fab, V domains shown) VH: QVQLVQSGAEVKKPGASVKVSCKSSGYTFTDYYIHWVRQAPGQGLEWMGWINPNSGDTNYAQKFQGRITMTRDTSISTAYLELSRLRSDDTAVFYCARNSASYSFGYWGQGTLVTVSS VL: DIQMTQSPSSVSASVGDRVTITCRASQGISSWLAWYQQKPGKAPKLLIFGASSLQSGVPSRFSGSGSGTDFTLTVSSLQPEDFATYYCQQAYSFPFTFGPGTKVDIE | 1% | – | – | 0.131 | 0.129
16 | 2M24A.1.18 (Fab, V domains shown) VH: QVQLVQSGAEVKKPGASVKVSCKSSGYTFTDYYIHWVRQAPGQGLEWMGWINPNSGDTNYAQKFQGRITMTRDTSISTAYLELSRLRSDDTAVFYCARNSGAYSFGYWGQGTLVTVSS VL: DIQMTQSPSSVSASVGDRVTITCRASQGISSWLAWYQQKPGKAPKLLIFGASSLQSGVPSRFSGSGSGTDFTLTVSSLQPEDFATYYCQQAYSFPFTFGPGTKVDIE | 9% | – | – | 0.138 | 0.124
17 | 2M24A.1.19 (Fab, V domains shown) VH: QVQLVQSGAEVKKPGASVKVSCKSSGYTFTDYYIHWVRQAPGQGLEWMGWINPNSGDTNYAQKFQGRITMTRDTSISTAYLELSRLRSDDTAVFYCARNSGSYAFGYWGQGTLVTVSS VL: DIQMTQSPSSVSASVGDRVTITCRASQGISSWLAWYQQKPGKAPKLLIFGASSLQSGVPSRFSGSGSGTDFTLTVSSLQPEDFATYYCQQAYSFPFTFGPGTKVDIE | 22% | – | – | 0.126 | 0.0983
18 | 2M24A.1.20 (Fab, V domains shown) VH: QVQLVQSGAEVKKPGASVKVSCKSSGYTFTDYYIHWVRQAPGQGLEWMGWINPNSGDTNYAQKFQGRITMTRDTSISTAYLELSRLRSDDTAVFYCARNSGSYSAGYWGQGTLVTVSS VL: DIQMTQSPSSVSASVGDRVTITCRASQGISSWLAWYQQKPGKAPKLLIFGASSLQSGVPSRFSGSGSGTDFTLTVSSLQPEDFATYYCQQAYSFPFTFGPGTKVDIE | 78% | – | – | 0.0981 | 0.0215
19 | 2M24A.1.21 (Fab, V domains shown) VH: QVQLVQSGAEVKKPGASVKVSCKSSGYTFTDYYIHWVRQAPGQGLEWMGWINPNSGDTNYAQKFQGRITMTRDTSISTAYLELSRLRSDDTAVFYCARNSGSYSFAYWGQGTLVTVSS VL: DIQMTQSPSSVSASVGDRVTITCRASQGISSWLAWYQQKPGKAPKLLIFGASSLQSGVPSRFSGSGSGTDFTLTVSSLQPEDFATYYCQQAYSFPFTFGPGTKVDIE | 8% | – | – | 0.125 | 0.114
20 | 2M24A.1.22 (Fab, V domains shown) VH: QVQLVQSGAEVKKPGASVKVSCKSSGYTFTDYYIHWVRQAPGQGLEWMGWINPNSGDTNYAQKFQGRITMTRDTSISTAYLELSRLRSDDTAVFYCARNSGSYSFGAWGQGTLVTVSS VL: DIQMTQSPSSVSASVGDRVTITCRASQGISSWLAWYQQKPGKAPKLLIFGASSLQSGVPSRFSGSGSGTDFTLTVSSLQPEDFATYYCQQAYSFPFTFGPGTKVDIE | 15% | – | – | 0.131 | 0.112
